Results taken from the nanobody polyreactivity screen of Harvey et al. (2022).

Assay: yeast display, Sf9 membrane polyspecificity reagent, FACS + sequencing; frameworks hold sequencing errors
In short: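 Nanobodies came from a synthetic yeast display library in Saccharomyces cerevisiae BJ5465, induced with galactose for 36–48 hours and stained for 1 hour at 4 °C with 10% biotinylated, detergent-solubilized Sf9 membrane reagent. Cells were enriched on streptavidin microbeads and then FACS-sorted, with low and high (top ~1%) gates set on anti-HA fluorescence for expression and streptavidin fluorescence for reagent binding. Each polyreactivity label reflects the gate a clone came from. Genes were amplified by colony PCR, sequenced by MiSeq 2 × 250 and filtered by CDR length.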

Sequence | polyreactivity (PSR sort gate)
QVQLVESGGGLVQAGGSLRLSCAASGYTSAKNGMGWYRQAPGKEREFVAGISRSGSSTYYADSVKGRFTISRDNAKNTVYLQMNSLKPEDTAVYFCAADWSVFTYFYGYDYWGQGTQVTVSS | low polyreactivity
QVQLVESGGGLVQAGGSLRLSCAASGYTSYTYTMGWYRQAPGKERELVAAISRRSDTTYADSVKGRFTISRDNAKNTVYLQMNSLKPEDTAVYYCAAVRVSYRSLSKSYYWGQGTQVTVSS | high polyreactivity
QVQLVESGGGLVQAGGSLRLSCAASGYTVGNNAMGWYRQAPGKERELVARIRTNGGTTYYADSVKGRFTISRDNAKNTVYLQMNSLKPEDTAVYYCNAYRGYEYDYWGQGTQVTVSS | low polyreactivity
QVQLVESGGGLVQAGGSLRLSCAASGYTVTSNAMGWYRQAPGKERELVAAITNVGSTNYADSVKGRFTISRDNAKNTVYLQMNSLKPEDTAVYYCAADWDAVYLQTADYDYWGQGSQVTVSS | low polyreactivity
QVQLVESGGGLVQAGGSLRLSCAASGYTYWQYAMGWYRQAPGKERELVATITSRGGSTYYADSVKGRFTISRDNAKNTVYLQMNSLIPEDTAVYYCNARRRYSTRRSDYWGQGTQVTVSS | high polyreactivity
QVQLVESGGGLVQAGGSLRLSCAASGYTYYRYAMGWYRQAPGKERELVAAISSSGGTYYADSVKGRFTISRDNAKNTVYLQMNSLKPEDTAVYYSAAEGYYLYNAGLWGYDYWGQGTQVTVSS | low polyreactivity
QVQLVESGGGLVQAGGSLRLSCAASGYVMGWYRQAPGKERELVAAITRGTSTYYADSVKGRFTISRDNAKNTVYLQMNSLKPEDTAVYYCAARTPGVSVYKDGYWGQGTQVTVSS | low polyreactivity
QVQLVESGGGLVQAGGSLRLSCAASRFIFYSNAMGWYRTAPGKERELVASITGDGGTTYYADSVKGRFTISRDNAKNNVYLQMNSLKPEDTAVYYCAKDYIYRGYYTDFRYEDYDYWGQGTQVTVSS | low polyreactivity
QVQLVESGGGLVQAGGSLRLSCAASRFTFRRNAMGWYRQAPGKERELVAAITYNGGTTYYADSVKGRFTISRDNAKNTVYLQMNSLKPEDTAVYYCNAPYGRQGYDYWGQGTQVTVSS | low polyreactivity
QVQLVESGGGLVQAGGSLRLSCAASRFTFTAYAMGWYRQAPGKERELVAAITGTGGSTKYADSVKGRFTISRDNAKNSVDLQMYSLKPEDTAVYYCAAIRFTLRRMDYWGHGTQVTVSS | high polyreactivity
QVQLVESGGGLVQAGGSLRLSCAASRFYTMGWYRQAPGKERELVAAISWSGGDTYYADSVKGRFTISRDNAKNTVYLQMNSLKPEDTAVYYCAKKTIGSYVHEPYYYWGQGTQVTVSS | low polyreactivity
QVQLVESGGGLVQAGGSLRLSCAASRFYTMGWYRQAPGKERELVAAISWSGGDTYYADSVKGRFTISRDNAKNTVYLQMNSLKPVDTAVYYRAKKTIGSYVHEPYYYWGQGTQVTVSS | low polyreactivity
QVQLVESGGGLVQAGGSLRLSCAASRLIFYTYAMGWYRQAPGKETELVAAISFSGGSTYYADSVTGRFTISRDNAKNTVYLLMTSLKPEDTAVYYCAARGYYGYYYWGQGTQVTVSS | high polyreactivity
QVQLVESGGGLVQAGGSLRLSCAASRLTFQQYAMGWYRQAPGKERELVAAITSDGASTNYADSVKGRFTISRDNAKNTVYLQMNSLKPEDTAVYYCAARRRSRQYRYDYWGQGTQVTVSS | high polyreactivity
QVQLVESGGGLVQAGGSLRLSCAASRLTFRYYAMGWYRQAPGKERELVASISSSSGSTYYADSVKGRFTISRDNAKNTVYFQMNSLKPEDTAVYYCNARGWTLGADFGYWGQGTQVTVSS | low polyreactivity
QVQLVESGGGLVQAGGSLRLSCAASRRIFDHNAMGWYRQAPGKERELVAAISSSGGRTYYADSVKGRFTISRDNAKNTVYLQMNSLKPEDTAVYYCNKVRTVTTYEYWGQGTQVTVSS | high polyreactivity
QVQLVESGGGLVQAGGSLRLSCAASRRIFLWYAMGWYRQAPGKERELVASITRSGVTTYYADSVKGRFTISRDKAKNTVYLQMNSLKPEDTAVYYCNKDFRGDAIKLDVNYWGQGTQVTVSS | low polyreactivity
QVQLVESGGGLVQAGGSLRLSCAASRRTFGYYAMGWYRKAPGKEREMVAAIRSTGSTNYADSVKGRFTISRDNAKNSVYLQMNCLKPEDTAVYYCNAKRRFRYDYWGLGTQVTVSS | low polyreactivity
QVQLVESGGGLVQAGGSLRLSCAASRRTFKSSAMGWYRPEPGKERELVAAISRSGGITYYADSVKGRFTISRDNAKNTVYLQMNSLKPEDTAVYYCAAVGYQYRHRRFYYWGQGTQVTVSS | high polyreactivity
QVQLVESGGGLVQAGGSLRLSCAASRSIFRYYTMGWYRQAPGKETELVASISRGGSTNYADSVKGRFTISRDNAKNTVYLQMNSLKPEDTAVYDCAAGWTTRYFGGVDYWGQGTQVTVSS | high polyreactivity
QVQLVESGGGLVQAGGSLRLSCAASRSIFTWYAMGWYIQEPGKERELVAAITRGGSTYADSVKWRFTISRDNAKYTVYLLMNSLKPEDTAVYDCNAFYGVYDFNYWGQGTHVTVSS | low polyreactivity
QVQLVESGGGLVQAGGSLRLSCAASRSIFVPYAMGWYRQAPGKERELVAVITSGGSTYYADSVKGRFTISRDNAKNTVYLQMNSLKPEDTAVYYCNADLYYVWSTLSQFDYWGQGTQVTVSS | low polyreactivity
QVQLVESGGGLVQAGGSLRLSCAASRSIFYDYVMGWYRQAPGKEREFVAAISWGGDSTYYADSVKGRFTISRDNAKNTVYLQMISLKPEDTAVYYCNADYPWSVVGYDYWGQGTQVTVSS | low polyreactivity
QVQLVESGGGLVQAGGSLRLSCAASRSIFYFYAMGWYRHAPWKERELVAAINSGGTTNYADSVKGRFTISRDNAKNTVYSQMNSLKPEDTAVYYCAARLLIRYYYWGQGTLVTVSS | high polyreactivity
QVQLVESGGGLVQAGGSLRLSCAASRSIFYSYALGWSRQAPGKEREWVADITITGSTYYADSVKGRFTISRDNAKNTVYLQMKSLKSEDTAVYFCNAVLAPGGYAYWGQGTQVTVSS | low polyreactivity
QVQLVESGGGLVQAGGSLRLSCAASRSTFYIYVMGWYRQAPGKERELVAAISWSGGSTYYTDSVKGRFTISRDNAKNTVYLQMNSLNPEDTAVYYCNADAHWSVWSYIIDYDYWGEGTQVTVSS | low polyreactivity
QVQLVESGGGLVQAGGSLRLSCAASRSTFYLNAMGWYRQAPGKERELVAAISSGGRTYYADSVKGRFTISRDNAKNTVYLQMNSLKPVDTAVYYCNAVRYLRGAYNYWGQGTQVTVSS | high polyreactivity
QVQLVESGGGLVQAGGSLRLSCAASRSTFYYYAMGWYRQAPGKERELVATISWSGDSTYADSVKGRFTISRDNAKNTVYLQMNRLKPEDTAVYYCATSGDWWGFRYDYLGQGTQVTVSS | low polyreactivity
QVQLVESGGGLVQAGGSLRLSCAASVFTFGQYTMGWYRQAPGKERELVAAITGSGGNTYYADSVKGRFTISRDNAKNTVYLQMNSLKPEDTAVYYCAVQWTYDQYYDYDYWGQGTQVTVSS | low polyreactivity
QVQLVESGGGLVQAGGSLRLSCAASVFTFRGNAMGWYRQAPGKERELVAAITSSDDSTYYADSVKGRFTISRDNAKNTVYLQMNSLKPEDTAVYYCAAVANGYWTYEYWGQGTQVTVSS | low polyreactivity
